{
  "source": "paper PMC10502752",
  "binders": {"B1": {"name": "CCRM1-1 probe (dsDNA)", "DNA 1": "CTTTTGTGTTGGCAAACTGCGCTTTTCCAACCGATTTTGTTCTTCTCGCGCTTTCTTCTTAGGCTAAACAAACCTCACCGTGCACGCAGCCATGGTCCTGAACCTTCA", "DNA 2": "TGAAGGTTCAGGACCATGGCTGCGTGCACGGTGAGGTTTGTTTAGCCTAAGAAGAAAGCGCGAGAAGAACAAAATCGGTTGGAAAAGCGCAGTTTGCCAACACAAAAG"}},
  "target": "T1, TaB3-2A1-GST (Triticum aestivum, UniProt A0A3B6AVE6 1-220)",
  "T1 sequence": "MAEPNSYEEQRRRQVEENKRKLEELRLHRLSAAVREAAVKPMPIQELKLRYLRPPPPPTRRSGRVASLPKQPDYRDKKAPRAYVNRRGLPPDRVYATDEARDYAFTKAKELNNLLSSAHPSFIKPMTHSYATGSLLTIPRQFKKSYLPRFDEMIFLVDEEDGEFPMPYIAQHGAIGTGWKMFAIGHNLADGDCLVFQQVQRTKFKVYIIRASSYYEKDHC",
  "experiment": "EMSA",
  "data": [
    {"binder": "B1", "values": [
      {"measurement": "binding result", "result": "binds"}
    ]}
  ]
}
